Kd data for 2 molecules are collected here from JP2018076351A (dated 2018).

Experiment [1] addresses human PCSK9 (wild type) (human). Briefly: Biacore at pH 6.0 (HBS-P with 0.01 % BSA); KD from nonlinear regression of competition curves, n=1.
The target is the same in experiment [2]. Put plainly: KinExA, solution equilibrium, PCSK9-coated beads. For orientation: In KinExA the mixture passes briefly over coated beads that capture the unbound partner.
The next experiment deals with cynomolgus monkey PCSK9 (cynomolgus monkey, UniProt A0A7N9D9N8 150-747). Put plainly: KinExA, solution equilibrium, PCSK9-coated beads; KD adjusted for 50 % active cPCSK9.

B1: 31H4 (antibody, V domains shown)
VH: EVQLVESGGGLVKPGGSLRLSCAASGFTFSSYSMNWVRQAPGKGLEWVSSISSSSSYISYADSVKGRFTISRDNAKNSLYLQMNSLRAEDTAVYFCARDYDFWSAYYDAFDVWGQGTMVTVSS
VL: QSVLTQPPSVSGAPGQRVTISCTGSSSNIGAGYDVHWYQQLPGTAPKLLISGNSNRPSGVPDRFSGSKSGTSASLAITGLQAEDEADYYCQSYDSSLSGSVFGGGTKLTVLQ
With B1, the equilibrium dissociation constant (Kd) (in general, the free concentration of one partner at which half of the binding sites on the other are occupied at equilibrium, for simple one-to-one binding) in the experiment with human PCSK9 (wild type) [1] was found to be 0.0125 nM; with human PCSK9 (wild type) [2], 0.003 nM; with cynomolgus monkey PCSK9 it was 0.002 nM.

B2: 16F12 (antibody, V domains shown)
VH: QVHLVESGGGVVQPGRSLRLSCAASGFTFNSFGMHWVRQAPGKGLEWVALIWSDGSDEYYADSVKGRFTISRDNSKNTLYLQMNSLRAEDTAVYYCARAIAALYYYYGMDVWGQGTTVTVSS
VL: QSVLTQPPSVSAAPGQKVTISCSGSSSNIGNNFVSWYQQLPGTAPKLLIYDYNKRPSGIPDRFSGSKSGTSATLGITGLQTGDEADYYCGTWDSSLSAYVFGTGTRVTVLQ
For the molecule B2, the figures for the dissociation constant (Kd) in the experiment with human PCSK9 (wild type) [1], with human PCSK9 (wild type) [2] and with cynomolgus monkey PCSK9 were 0.029 nM, 0.015 nM and 0.016 nM, respectively.
